{"source": "patent US20230322935A1", "about": "(published 2023)", "binders": {"B1": {"name": "h7F3 (humanized 7F3, VH3+VL3) (antibody, V domains shown)", "VH": "QVQLVQSGAEVKKPGASVKVSCKASGYTFTDYEMHWVRQAPGQGLEWMGGIDPETGDTAYNQNFKGRVTMTTDTSTSTAYMELRSLTSDDTAVYYCTNYGNLYYYAMDYWGQGTSVTVSS", "VL": "EIVLTQSPSSLSASVGDRVTITCRASSSVSSSYLHWYQQKPGKAPKLLIYSTSNLAFGVPSRFSGSGSGTSYTFTISSLQPEDIATYYCQQYSGYPLTFGSGTKLEIK"}, "B2": {"name": "h16E4 (humanized 16E4, VH4+VL6) (antibody, V domains shown)", "VH": "QVQLVQSGAEVKKPGASVKVSCKASGYTFTSYWMHWVRQAPGQGLEWMGEIDPSASYTYYNQKFKGRVTMTRDKSSSTVYMELSSLTSEDSAVYYCARSVYYGNKYFDVWGAGTTVTVSS", "VL": "DIQMTQSPSTLSASVGDRVTITCKASQSVDYAGDSYMNWYQQKPGKAPKLLIYAASNLESGVPSRFSGSGSGTEFTLTISSLQPDDFATYYCQQTNEDPRTFGGGTKLEIK"}}, "key": {"[1]": {"target": "T1, Human CD93 on the cell surface (human CD93 expressing CHO cells; HUVEC, U937 and KG1a cells) (human, UniProt Q9NPY3 22-652)", "T1 chain": "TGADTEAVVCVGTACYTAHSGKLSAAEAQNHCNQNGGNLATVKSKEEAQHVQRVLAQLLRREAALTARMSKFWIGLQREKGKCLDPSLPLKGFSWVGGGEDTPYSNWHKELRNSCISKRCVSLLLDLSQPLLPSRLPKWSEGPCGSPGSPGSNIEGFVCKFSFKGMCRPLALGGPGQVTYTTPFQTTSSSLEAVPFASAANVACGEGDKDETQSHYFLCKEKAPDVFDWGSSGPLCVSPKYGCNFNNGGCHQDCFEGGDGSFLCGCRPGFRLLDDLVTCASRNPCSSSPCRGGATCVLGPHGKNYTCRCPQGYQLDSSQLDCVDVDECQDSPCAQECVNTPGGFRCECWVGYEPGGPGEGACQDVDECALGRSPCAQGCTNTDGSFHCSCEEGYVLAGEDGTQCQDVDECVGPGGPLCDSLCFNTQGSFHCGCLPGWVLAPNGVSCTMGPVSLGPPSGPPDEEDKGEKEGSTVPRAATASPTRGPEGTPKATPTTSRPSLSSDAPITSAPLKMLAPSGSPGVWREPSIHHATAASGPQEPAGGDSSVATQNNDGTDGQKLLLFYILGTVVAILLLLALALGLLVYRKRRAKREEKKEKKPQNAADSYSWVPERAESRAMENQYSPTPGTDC", "assay": "FACS blocking of hIGFBP7-His binding; HUVEC cells"}, "[2]": {"target": "T1, Human CD93 on the cell surface (human …)", "assay": "FACS blocking of MMRN2 binding; FIG. 45"}}, "data": [{"binder": "B1", "values": [{"measurement": "IC50", "setting": "[1]", "result": 1, "unit": "nM"}]}, {"binder": "B2", "values": [{"measurement": "IC50", "setting": "[2]", "result": 225, "unit": "nM"}]}]}
